This series concerns the target T1, GST-ZAKα 701-800 (Homo sapiens, UniProt Q9NYL2 701-800).
T1 sequence: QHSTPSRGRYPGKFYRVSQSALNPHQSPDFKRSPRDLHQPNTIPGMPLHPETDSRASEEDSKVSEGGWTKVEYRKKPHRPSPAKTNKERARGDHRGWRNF
Briefly: EMSA; supershift with GST antibody; EMSA: 20 mM HEPES pH 7.6, 3 mM MgCl2, 40 mM KCl, 5% glycerol, 2 mM DTT, 100 fmol probe in 20 µl, 20 min on ice; 4% native PAGE, 0.25x TBE. Conditions: protein: recombinant; tags: GST; label: 5'-IRDye700; single strand, seemingly unstructured.

For the molecule AGCUUAGGAAUAUCAAUGUUAAGUAG (ssRNA) [ARE-IRDye700], the binding result was “binds”.

The values are drawn from paper PMC13293227.
